B1: human C-C chemokine receptor 4 (CCR4) (receptor)
chain: MNPTDIADTTLDESIYSNYYLYESIPKPCTKEGIKAFGELFLPPLYSLVFVFGLLGNSVVVLVLFKYKRLRSMTDVYLLNLAISDLLFVFSLPFWGYYAADQWVFGLGLCKMISWMYLVGFYSGIFFVMLMSIDRYLAIVHAVFSLRARTLTYGVITSLATWSVAVFASLPGFLFSTCYTERNHTYCKTKYSLNSTTWKVLSSLEINILGLVIPLGIMLFCYSMIIRTLQHCKNEKKNKAVKMIFAVVVLFLGFWTPYNIVLFLETLVELEVLQDCTFERYLDYAIQATETLAFVHCCLNPIIYFFLGEKFRKYILQLFKTCRGLFVLCQYCGLLQIYSADTPSSSYTQSTMDHDLHDAL
notes: Expressed on stably transfected murine pre-B L1.2 cells (L1.2/CCR4, L1.2/huCCR4); also called huCCR4; MDC receptor CCR4

Experiment [1] addresses B1. Kind of experiment: competition with 0.1 nM 125I-labeled human MDC on L1.2/huCCR4 cells; LARC at 100 nM.
Experiment [2] deals with T1, MDC-SEAP fusion protein (human, UniProt P05187 23-506).
T1 construct: mature; Expressed from pcDNA3 in COS cells and used as filtered culture supernatant; also called synthetic MDC-SEAP
The experiment can be described thus: saturation binding of MDC-SEAP to CCR4-transfected L1.2 cells, Scatchard analysis. As to the method: (§1) The MDC-SEAP was used as a probe to examine MDC binding to CCR4-transfected L1.2 cells. For displacement and saturation experiments, transfected L1.2 cells (approx. 3×10^5) were incubated for one hour at 16° C. in the presence of 0.5 nM MDC-SEAP in the presence or absence of various concentrations of unlabeled chemokines in 200 μl binding buffer (RPMI 1640 media containing 25 mM HEPES, pH 7.4, 1% BSA, and 0.02% sodium azide). Following incubation, the cells were washed four times in binding buffer and lysed in 50 μl of 10 mM Tris-HCl, pH 8.0, and 1% Triton X-100. Samples were heated at 65° C. for 15 minutes to inactivate cellular phosphatases, centrifuged, and stored at −20° C. until assayed.
(§2) Alkaline phosphatase activity in 10 μl of sample was determined by a chemiluminescence assay using the Great Escape Detection kit (Clontech, Palo Alto, Calif.) according to the manufacturer's instructions. […] Binding competition curves were fitted (TableCurve™) using a three-parameter logistic model described by the equation y=a/[1+(x/b)^c], where y is the amount of labelled ligand bound, a is the maximum amount of labelled ligand bound, x is the concentration of the competitive chemokine, b is the IC$50$, and c is a parameter that determines the slope of the curve at the IC$50$.

Experiment [3] addresses B1. The experiment can be described thus: displacement of 0.5 nM MDC-SEAP from CCR4-transfected L1.2 cells by unlabeled chemokine. The method, then: as §1, §2
The target in experiment [4] is B1. The experiment can be described thus: CCR4 binding assay on L1.2/CCR4 cells, essentially as in Example 25.
The target of experiment [5] is B1. The experiment can be described thus: cell-based or functional assay.

Data on eight molecules can be found in patent US7018627 (ICOS, dated 2006).

In the case of “chemokine LARC (from UniProt P78556 27-96) (ligand)”, the cpm of labeled MDC bound in the presence of the competitor in experiment [1] was determined as 3800 cpm.
In general, Kd refers to the equilibrium constant for the complex coming apart. In experiment [2], B1 came in with a Kd of 0.18 nM.

B2: human mature Macrophage Derived Chemokine, MDC(1-69) (ligand)
chain: GPYGANMEDSVCCRDYVRYRLPLRVVKHFYWTSDSCPRPGVVLLTFRDKEICADPRVPWVKMILNKLSQ
notes: also called mature MDC; human mature MDC
Usually IC50 stands for the concentration that inhibits the measured activity by half. High values mean a need for much substance, low ones inhibition by little substance. B2: in experiment [3], the IC50 amounted to 0.65 nM and the “fold higher affinity than TARC” value is > 3 fold.

B3: MDC-eyfy (ligand)
chain: GPYGANMEDSVCCRDYVRYRLPLRVVKEYFYTSDSCPRPGVVLLTFRDKEICADPRVPWVKMILNKLSQ
Consider B3, for which, in experiment [4], the binding result is “binds”.

B4: MDC-wvas (ligand)
chain: GPYGANMEDSVCCRDYVRYRLPLRVVKHFYWTSDSCPRPGVVLLTFRDKEICADPRVPASKMILNKLSQ
notes: Chemically synthesized analog
For B4, the “fold less affinity than MDC” value in experiment [4] was ~500 fold.

B5: murine Leu-MDC (ligand)
chain: LGPYGANVEDSICCQDYIRHPLPSRLVKEFFWTSKSCRKPGVVLITVKNRDICADPRQVWVKKLLHKLS
On to B5, for which, in experiment [5], the “chemotaxis of L1.2/huCCR4 cells: response relative to full-length murine MDC” value was ~20 % lower.

B6: MDC (9-69) (ligand)
chain: DSVCCRDYVRYRLPLRVVKHFYWTSDSCPRPGVVLLTFRDKEICADPRVPWVKMILNKLSQ
notes: Chemically synthesized N-terminal deletion analog
Consider B6, for which, in experiment [4], the binding result is listed as “binds”.

B7: TARC (Thymus and Activation-Regulated Chemokine) (ligand)
chain: ARGTNVGRECCLEYFKGAIPLRKLKTWYQTSEDCSRDAIVFVTVQGRAICSDPNNKRVKNAVKYLQSLERS
notes: The whole entry is named here
With B7, in experiment [3], the IC50 was found to be 2.1 nM.
